These results are taken from patent publication US20110263679.

In this series the test system is T1, purified recombinant His-tagged C12ORF48 protein.
T1 sequence: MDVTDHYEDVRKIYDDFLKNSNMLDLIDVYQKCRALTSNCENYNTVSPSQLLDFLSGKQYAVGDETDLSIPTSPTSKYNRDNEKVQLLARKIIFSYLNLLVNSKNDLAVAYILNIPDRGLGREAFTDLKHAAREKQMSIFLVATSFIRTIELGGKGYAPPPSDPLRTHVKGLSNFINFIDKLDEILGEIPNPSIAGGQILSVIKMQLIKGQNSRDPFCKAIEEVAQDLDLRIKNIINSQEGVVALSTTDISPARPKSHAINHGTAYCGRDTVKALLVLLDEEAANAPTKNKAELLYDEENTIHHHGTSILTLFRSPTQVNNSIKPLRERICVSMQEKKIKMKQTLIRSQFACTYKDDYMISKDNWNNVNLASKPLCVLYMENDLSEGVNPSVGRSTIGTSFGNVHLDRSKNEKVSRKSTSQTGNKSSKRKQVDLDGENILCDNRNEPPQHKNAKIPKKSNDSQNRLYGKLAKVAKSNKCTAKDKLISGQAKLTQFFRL

For recombinant human PARP1 (Alexis), the “PARP1 automodification, incorporation of [32P] NAD+, SDS-PAGE autoradiography” value is “PARP1 automodification was strongly enhanced in the presence of C12ORF48 protein compared with in the absence of C12ORF48 protein”.
